How the values were obtained:
[1] = target: MBP-LjNIN (551–878) (Lotus japonicus); test: SEC-MALS
[2] = target: MBP-LjNLP4 (564–976) (Lotus japonicus); test: SEC-MALS
[3] = target: MBP-LjNLP4 (564-976) (Lotus japonicus, UniProt A0A2Z5V8A6 564-976); test: EMSA
[4] = target: MBP-LjNIN (551-878) (Lotus japonicus, UniProt Q9S7B1 551-878); test: EMSA
[5] = target: MBP-LjNLP4 (564-976);Trx-His-LjNIN (551-878) (Lotus japonicus;Lotus japonicus, UniProt A0A2Z5V8A6;Q9S7B1 564-976;551-878, |); test: EMSA

stoichiometry N [1] | stoichiometry N [2] | Molecule | binding result [3] | binding result [4] | binding result [5]
2 |  | MBP-LjNIN (551–878) (domain or fragment) |  |  | 
 | 2 | MBP-LjNLP4 (564–976) (domain or fragment) |  |  | 
 |  | LjNIR1pro (dsDNA) DNA 1: CAAACACGACCCTTTGTCACAACCAAAGGTCCATTGTA DNA 2: TACAATGGACCTTTGGTTGTGACAAAGGGTCGTGTTTG | binds | binds | 
 |  | LjNF-YBpro (dsDNA) DNA 1: TTTACTTGTATCTTTAGAGCTTTCCAAGGGATATTTCA DNA 2: TGAAATATCCCTTGGAAAGCTCTAAAGATACAAGTAAA | no binding | binds | binds
 |  | CLE-RS2pro (dsDNA) DNA 1: TGAGTTCTGACCCTTAAGCCTTGGAAAGGACAGTCATG DNA 2: CATGACTGTCCTTTCCAAGGCTTAAGGGTCAGAACTCA | binds | binds | 

Source: PMC8364233
